In article doi:10.1101/047555:
Where no end group is shown, it is not given here. fluorescein = fluorescein-aminocaproic acid; Ahx = NCCCCCC(=O)O

Target: EP12, C-terminal region of MamE containing only the PDZ domains (Magnetospirillum magneticum AMB-1)
Assay: fluorescence polarisation

B1: PDZ1* peptide (fluorescein-labelled, phage-derived ligand of MamE PDZ1) (peptide)
peptide: {fluorescein-Ahx}-WSQEMEDWFWQMPLSG
- fold tighter binding than the PDZ2 peptide: 10 fold
